Reference: patent publication US20220098252, “INHIBITOR OF DUX4 AND USES THEREOF” (OSPEDALE SAN RAFFAELE S.R.L., published 2022)

Legend:
MATR3 fragment 1-287 = molecular target: T1, MATR3 fragment 1-287 (Homo sapiens, UniProt P43243 SEQ:1-287); experiment: EMSA; MATR3 1-287 alone unable to bind DNA; lacks nucleic acid binding domains; conditions: tags: GST (pGEX2tk)
T1 sequence: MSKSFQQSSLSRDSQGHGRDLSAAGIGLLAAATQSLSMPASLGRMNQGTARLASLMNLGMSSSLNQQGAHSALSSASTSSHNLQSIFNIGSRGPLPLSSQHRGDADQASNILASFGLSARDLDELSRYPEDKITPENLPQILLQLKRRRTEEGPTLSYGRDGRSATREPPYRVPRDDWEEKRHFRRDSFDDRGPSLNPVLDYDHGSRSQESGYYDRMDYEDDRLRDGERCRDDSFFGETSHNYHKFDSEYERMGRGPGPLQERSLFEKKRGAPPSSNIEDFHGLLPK
Procedure: (§1) Twenty femtomoles of probes were incubated with 15 pmol of in vitro purified 6xHis DUX4 dbd and/or GST-MATR3 1-287 proteins in the presence of 1 μg of poly(dI:dC) and 5 μg of salmon sperm DNA in a buffer containing 10 mM Tris, pH 7.5, 0.1 mM EDTA, 1 mM DTT, 100 mM KCl, 3 mM MgCl2, 12% glycerol.
(§2) After 2 h incubation at RT, DNA-protein complexes were separated by electrophoresis in 8% (w/v) acrylamide gels formed in 0.5×TBE (Sigma-Aldrich) and run in the same buffer at 5 mA at 4° C. Then, the gels were transferred on a Biodyne nylon membrane (Thermo Scientific) at 380 mA for 45 min at 4° C. The membrane was crosslinked at 120 mJ/cm2 with an UV-Stratalinker and the biotin-labelled DNA was detected by chemiluminescence using the LightShift Chemiluminescent EMSA Kit (Thermo Scientific) following the manufacturer's protocol.

[1] = molecular target: DUX4 DNA-binding domain (dbd) (Homo sapiens, UniProt Q6RFH8 SEQ:1-150); experiment: EMSA; binding inhibited by recombinant MATR3 1-287; conditions: tags: 6xHis-GB1 (pET-GB1)
Chain of DUX4 DNA-binding domain (dbd) (Q6RFH8 1-150): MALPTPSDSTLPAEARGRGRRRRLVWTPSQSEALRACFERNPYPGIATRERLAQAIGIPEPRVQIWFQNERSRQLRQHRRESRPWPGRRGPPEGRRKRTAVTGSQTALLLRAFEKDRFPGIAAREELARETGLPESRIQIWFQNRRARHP
Procedure: as §1, §2

B1: FRG1 Peak 1 EMSA probe (dsDNA)
DNA 1: AATTGTAGCTATAATTCAATCATCTAAATTG
DNA 2: CAATTTAGATGATTGAATTATAGCTACAATT
- binding result (MATR3 fragment 1-287): no binding
- binding result [1]: binds
